The target in assay [1] is T1, GST-MCL-1 (human, UniProt Q07820 1-327, limits assumed).
T1 construct: not shown: GST tag
The experiment in a line: fluorescence polarization displacement of fluorescein BIM BH3 from 0.1 uM GST-MCL-1. As to the method: (§1) Binding assays were performed using fluorescence polarization as previously described (Letai et al., 2002). A minimum of three independent experiments were used to determine each dissociation constant.
A general note: In fluorescence polarisation assays a small probe gives low polarisation when free and higher when bound to something large.

The target in assay [2] is T2, GST-BFL-1 (human, UniProt Q16548 1-153, limits assumed).
T2 construct: Bacterially expressed GST fusion; not shown: GST tag
T2 sequence (looked up): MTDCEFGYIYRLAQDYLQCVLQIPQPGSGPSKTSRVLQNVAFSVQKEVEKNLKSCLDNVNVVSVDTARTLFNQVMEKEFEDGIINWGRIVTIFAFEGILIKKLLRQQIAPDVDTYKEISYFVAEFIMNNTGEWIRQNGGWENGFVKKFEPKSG
The experiment in a line: fluorescence polarization, FITC peptide with GST-BFL-1. As to the method: as §1
(§2) To determine selectivity in interactions among antiapoptotic BCL-2 family members and BH3 domains of BH3-only proteins, fluorescence polarization binding assays (FPA) were used. Antiapoptotic proteins BCL-2, BCL-XL, MCL-1, BCL-w, and BFL-1 were purified from transfected bacteria as GST fusion proteins. Oligopeptides used for FPA were tagged with an N-terminal FITC moiety.

Assay [3] addresses T3, GST-BCL-2 (human, UniProt P10415 1-218, limits assumed).
T3 construct: Bacterially expressed GST fusion; not shown: GST tag
As to the kind of experiment: fluorescence polarization, FITC peptide with GST-BCL-2. As to the method: as §1, §2

Assay [4] has as its target T4, GST-BCL-XL (human, UniProt Q07817 1-212, limits assumed).
T4 construct: Bacterially expressed GST fusion; not shown: GST tag
As to the kind of experiment: fluorescence polarization, FITC peptide with GST-BCL-XL. As to the method:
as §1, §2

Assay [5] has as its target T5, GST-BCL-w (human, UniProt Q92843 1-164, limits assumed).
T5 construct: Bacterially expressed GST fusion; not shown: GST tag
T5 sequence (looked up): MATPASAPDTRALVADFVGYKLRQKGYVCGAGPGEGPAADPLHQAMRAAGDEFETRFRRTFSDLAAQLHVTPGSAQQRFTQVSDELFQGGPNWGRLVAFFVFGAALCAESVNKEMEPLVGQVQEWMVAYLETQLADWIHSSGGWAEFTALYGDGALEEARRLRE
As to the kind of experiment: fluorescence polarization, FITC peptide with GST-BCL-w. As to the method: as §1, §2

Assay [6] addresses T3, GST-BCL-2. As to the kind of experiment: fluorescence polarization (Table 2b) as retold.
Assay [7] addresses T3, GST-BCL-2. The experiment in a line: fluorescence polarization displacement of fluorescein BIM BH3 from 0.5 uM GST-BCL-2. As to the method:
as §1

Experimental findings from US20160258933A1 (Dana-Farber, published 2016) are described below.

Ends that are not written are not given here. * marks the point of attachment. FITC = O=C1OC2(c3ccc(O)cc3Oc3cc(O)ccc32)c2ccc(NC(=S)*)cc21; Ahx = NCCCCCC(=O)O

T3 sequence (P10415 1-218 limits assumed): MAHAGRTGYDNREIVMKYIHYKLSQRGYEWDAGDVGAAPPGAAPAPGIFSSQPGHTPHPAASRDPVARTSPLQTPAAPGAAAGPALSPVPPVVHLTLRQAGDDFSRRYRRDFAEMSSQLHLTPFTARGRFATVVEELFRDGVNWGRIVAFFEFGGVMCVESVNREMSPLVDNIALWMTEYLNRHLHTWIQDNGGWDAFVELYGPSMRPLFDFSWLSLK
T4 sequence (Q07817 1-212 limits assumed): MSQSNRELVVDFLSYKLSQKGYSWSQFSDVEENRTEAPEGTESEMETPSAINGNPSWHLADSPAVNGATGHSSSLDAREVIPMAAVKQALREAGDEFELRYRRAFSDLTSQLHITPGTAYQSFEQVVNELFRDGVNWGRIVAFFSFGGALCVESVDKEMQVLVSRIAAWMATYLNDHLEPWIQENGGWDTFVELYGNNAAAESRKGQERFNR
T1 sequence (Q07820 1-327 limits assumed): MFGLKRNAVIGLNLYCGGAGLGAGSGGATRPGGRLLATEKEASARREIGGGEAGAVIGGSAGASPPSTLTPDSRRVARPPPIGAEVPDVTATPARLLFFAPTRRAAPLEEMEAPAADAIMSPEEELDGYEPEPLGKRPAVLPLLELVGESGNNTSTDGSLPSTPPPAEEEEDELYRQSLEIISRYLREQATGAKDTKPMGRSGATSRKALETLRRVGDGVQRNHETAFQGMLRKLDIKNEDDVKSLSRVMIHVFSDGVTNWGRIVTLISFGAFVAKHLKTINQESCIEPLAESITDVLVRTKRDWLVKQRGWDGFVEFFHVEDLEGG

B1: BAD BH3 peptide (no tag stated) (peptide)
peptide: LWAAQRYGRELRRMSDEFEGSFKGL
notes: Peptide as titrated in the displacement assay and used on mitochondria and cells
For B1, in assay [1], the binding result is given as “no binding”.
As for {FITC-Ahx}-PADLKDECAQLRRIGDKVNL [NOXA B BH3 peptide, N-terminal fluorescein tagged], the binding result in assay [2], in assay [3], in assay [4] and in assay [5] was “no binding” throughout.
Take {FITC-Ahx}-MEGSDALALRLACIGDEMDV [BIK BH3 peptide, N-terminal fluorescein tagged]: in assay [6], the “fold lower affinity than BAD BH3” value was approximately 10 fold and the “fold lower affinity than BAD, PUMA or BMF BH3” value is approximately 10 fold.

B2: NOXA A BH3 peptide (no tag stated) (peptide)
peptide: AELPPEFAAQLRKIGDKVYC
notes: as for B1
In the case of B2, the binding result in assay [7] was “no binding”.
Turning to {FITC-Ahx}-AELPPEFAAQLRKIGDKVYC [NOXA A BH3 peptide, N-terminal fluorescein tagged], the binding result in assay [2], in assay [3], in assay [4] and in assay [5] was “no binding” each time.
